Laboratory results taken from the supplement of paper PMC10567573.

B1: SEPHS2 (parent)
chain: KASGRFGLLQGTSAETSGGLLICL
B2: NR2F2 (parent)
chain: VAHVESLQEKSQCALEEYVRSQYP

Variants of: B1
Assay: protein stability index of a GFP-peptide fusion (GPS, HEK-293T) (PSI 1-6); higher = more stable
Conditions: c terminus: a fixed tail appended
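Also: lentivirally expressed fusions sorted by FACS into six bins by GFP to DsRed ratio, PSI derived from sequencing read proportions per bin multiplied by bin number.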

Row | Variant | protein stability index
1 | C23P | 2.02
2 | S17F | 2.78
3 | L8K | 3.37
4 | S17N | 2.67
5 | L24P | 2.8
6 | F6E | 2.37
7 | S3F | 1.71
8 | G7N | 2.13
9 | I22K | 2.14
10 | F6L | 2.48
11 | L20G | 1.96
12 | G11M | 2.37
13 | S3D | 2.07
14 | I22Y | 1.71
15 | K1G | 1.44
16 | L21H | 2.21
17 | I22H | 2.42
18 | T12F | 3.31
19 | G7I | 2.32
20 | G7W | 2.21
21 | E15D | 2.1
22 | R5H | 3.5
23 | R5F | 3.72
24 | L24H | 1.89
25 | G11T | 4.7

Row | Variant | protein stability index
26 | L8F | 2.18
27 | A14E | 2.62
28 | G18P | 2.98
29 | G19A | 3.71
30 | G18D | 2.67
31 | A14T | 1.72
32 | L20Q | 2.58
33 | S3A | 1.55
34 | R5K | 2.97
35 | L21A | 1.04
36 | G18K | 2.4
37 | I22S | 2.83
38 | F6M | 2.44
39 | C23N | 1.79
40 | G4A | 4.01
41 | I22P | 3.43
42 | G4P | 1.95
43 | G19H | 1.74
44 | S17G | 2.08
45 | G4E | 3.09
46 | A2W | 2.41
47 | C23Q | 1.73
48 | L24Y | 2.62
49 | K1N | 1.95
50 | L24K | 2.67

Row | Variant | protein stability index
51 | S3H | 4.72
52 | L9R | 2.98
53 | G7D | 3.42
54 | A2G | 1.38
55 | G4L | 2.01
56 | S3T | 3.36
57 | L21Y | 1.32
58 | L20P | 2.39
59 | E15R | 1.37
60 | G19R | 2.62
61 | L24R | 2.55
62 | A2Y | 2.29
63 | G11N | 2.76
64 | L24E | 3.13
65 | I22T | 2.33
66 | G11R | 3.92
67 | F6Q | 2.79
68 | G11Q | 2.54
69 | C23F | 3.71
70 | F6K | 1.79
71 | G18N | 2.2
72 | G11S | 1.86
73 | T16F | 3.47
74 | A14H | 2.43
75 | G19I | 2.54

Row | Variant | protein stability index
76 | L24A | 1.24
77 | S17L | 1.18
78 | L24T | 2.43
79 | L21D | 2.12
80 | T16M | 2.06
81 | L9Y | 2.09
82 | G19T | 1.74
83 | G7T | 1.88
84 | I22F | 4.06
85 | L21E | 1.38
86 | T16S | 1.61
87 | E15Y | 4.55
88 | Q10N | 2.95
89 | G18C | 3.15
90 | R5D | 2.61
91 | L8V | 3.22
92 | L21T | 2.38
93 | S3R | 1.82
94 | L21N | 2.94
95 | G7Y | 2.71
96 | C23K | 1.53
97 | L9I | 2.41
98 | L9E | 2.76
99 | C23S | 1.81
100 | L8C | 3.4

Row | Variant | protein stability index
101 | I22E | 2.64
102 | A2V | 3.69
103 | L21M | 2.35
104 | Q10V | 3.11
105 | G4S | 3.04
106 | S13D | 2.01
107 | A2Q | 3.26
108 | A14Q | 3.85
109 | I22C | 2.02
110 | T16I | 2.5
111 | C23T | 1.32
112 | T12L | 3.67
113 | S13M | 2.24
114 | G19M | 2.76
115 | S13Q | 1.5
116 | G4Q | 2.76
117 | S3M | 1.51
118 | F6I | 2.31
119 | F6W | 4.73
120 | R5W | 1.66
121 | A2D | 2.81
122 | G4D | 2.9
123 | L9N | 1.78
124 | I22A | 1.82
125 | S3P | 3.31

Row | Variant | protein stability index
126 | F6T | 3.52
127 | L20S | 1.94
128 | L21K | 1.45
129 | F6D | 1.03
130 | T12E | 2.52
131 | L24N | 2.11
132 | K1D | 2.07
133 | R5V | 3.1
134 | L8G | 3.65
135 | A2S | 3.5
136 | L21G | 1.53
137 | E15W | 1.66
138 | R5L | 3.49
139 | G4T | 3.11
140 | L24D | 2.99
141 | E15C | 2.82
142 | S17W | 3.02
143 | L20E | 1.82
144 | R5C | 2.27
145 | F6S | 1.81
146 | G19Y | 1.89
147 | S13V | 4.84
148 | E15I | 1.91
149 | C23D | 2.02
150 | L21P | 2.44

Row | Variant | protein stability index
151 | T16R | 2.58
152 | G7K | 3.27
153 | G4K | 3.51
154 | L20A | 2.87
155 | Q10I | 3.54
156 | L21S | 2.68
157 | K1T | 1.69
158 | Q10P | 2.19
159 | L9P | 2.32
160 | L8A | 2.02
161 | G19L | 2.19
162 | F6Y | 1.75
163 | L8I | 2.17
164 | L24S | 1.9
165 | L9V | 1.74
166 | L8W | 2.08
167 | G19Q | 2.1
168 | L21V | 2.08
169 | G7H | 2.78
170 | K1L | 2.28
171 | I22M | 1.28
172 | S13K | 2.7
173 | I22W | 1.58
174 | R5A | 5.51
175 | Q10S | 1.71

Row | Variant | protein stability index
176 | L8M | 2.26
177 | G7L | 3.5
178 | R5T | 3.23
179 | L20H | 2.07
180 | E15A | 2.02
181 | C23A | 1.93
182 | Q10E | 2.2
183 | G7S | 2.55
184 | K1W | 2.52
185 | Q10M | 3.87
186 | A14Y | 2.24
187 | E15T | 2.48
188 | C23M | 1.49
189 | G18Q | 2.5
190 | S3E | 2.76
191 | L24F | 4.05
192 | K1C | 2.13
193 | T16H | 1.88
194 | G11H | 2.12
195 | L20K | 1.95
196 | L21Q | 2.08

Variants of: B2
Assay: as above
Conditions: c terminus: a fixed tail appended

Row | Variant | protein stability index
197 | V1A | 3.29
198 | V1C | 2.66
199 | V1D | 4.15
200 | V1E | 4.24
201 | V1F | 3.03
202 | V1G | 3.79
203 | V1H | 3.55
204 | V1I | 3.52
205 | V1K | 3.66
206 | V1L | 3.5
207 | V1M | 3.89
208 | V1N | 4.01
209 | V1P | 4.13
210 | V1Q | 3.89
211 | V1R | 3.39
212 | V1S | 3.53
213 | V1T | 4.19
214 | V1W | 3.12
215 | V1Y | 3.39
216 | A2C | 2.54
217 | A2D | 3.85
218 | A2E | 4.27
219 | A2F | 2.59

Row | Variant | protein stability index
220 | A2G | 3.53
221 | A2H | 2.98
222 | A2I | 2.56
223 | A2K | 3.48
224 | A2L | 2.85
225 | A2M | 3.03
226 | A2N | 3.1
227 | A2P | 3.76
228 | A2Q | 3.33
229 | A2R | 3.55
230 | A2S | 3.87
231 | A2T | 3.73
232 | A2V | 3.27
233 | A2W | 2.29
234 | A2Y | 3.25
235 | H3A | 3.48
236 | H3C | 3.42
237 | H3D | 4.6
238 | H3E | 4.95
239 | H3F | 2.63
240 | H3G | 3.75
241 | H3I | 2.55
242 | H3K | 3.43

Row | Variant | protein stability index
243 | H3L | 2.38
244 | H3M | 3.36
245 | H3N | 3.77
246 | H3P | 4.09
247 | H3Q | 3.81
248 | H3R | 3.45
249 | H3S | 3.68
250 | H3T | 3.86
251 | H3V | 2.83
252 | H3W | 2.26
253 | H3Y | 2.77
254 | V4A | 4.11
255 | V4C | 3.81
256 | V4D | 4.06
257 | V4E | 4.37
258 | V4F | 2.85
259 | V4G | 3.94
260 | V4H | 4.06
261 | V4I | 3.45
262 | V4K | 3.79
263 | V4L | 3.08
264 | V4M | 3.24
265 | V4N | 4.12

Row | Variant | protein stability index
266 | V4P | 3.54
267 | V4Q | 4.03
268 | V4R | 4.06
269 | V4S | 4.11
270 | V4T | 3.59
271 | V4W | 3.28
272 | V4Y | 2.59
273 | E5A | 3.27
274 | E5C | 1.97
275 | E5D | 3.18
276 | E5F | 1.92
277 | E5G | 2.9
278 | E5H | 3.02
279 | E5I | 2.41
280 | E5K | 2.96
281 | E5L | 2.37
282 | E5M | 2.69
283 | E5N | 3.38
284 | E5P | 3.04
285 | E5Q | 3.52
286 | E5R | 2.63
287 | E5S | 2.53
288 | E5T | 2.93

Row | Variant | protein stability index
289 | E5V | 2.48
290 | E5W | 2.14
291 | E5Y | 2.13
292 | S6A | 4.04
293 | S6C | 3.48
294 | S6D | 3.86
295 | S6E | 4.33
296 | S6F | 2.71
297 | S6G | 3.24
298 | S6H | 3.26
299 | S6I | 3.07
300 | S6K | 4.12
301 | S6L | 3.22
302 | S6M | 3.07
303 | S6N | 3.53
304 | S6P | 2.94
305 | S6Q | 3.69
306 | S6R | 3.67
307 | S6T | 3.55
308 | S6V | 3.33
309 | S6W | 2.77
310 | S6Y | 2.98
311 | L7A | 3.92

Row | Variant | protein stability index
312 | L7C | 3.81
313 | L7D | 4.29
314 | L7E | 4.77
315 | L7F | 3.27
316 | L7G | 3.55
317 | L7H | 3.71
318 | L7I | 3.82
319 | L7K | 3.98
320 | L7M | 3.95
321 | L7N | 4.68
322 | L7P | 4.43
323 | L7Q | 4.08
324 | L7R | 3.89
325 | L7S | 4.29
326 | L7T | 4.13
327 | L7V | 4.05
328 | L7W | 3.03
329 | L7Y | 3.45
330 | Q8A | 3.03
331 | Q8C | 2.99
332 | Q8D | 3.71
333 | Q8E | 3.99
334 | Q8F | 2.48
